According to patent publication US20180037632A1 (BIONTECH, published 2018):
Substitutions are numbered along the chain they refer to. Names may count otherwise. Positions of bridges follow the written chain, without caps; N, C: chain ends. No end group written: not given here.

T1: recombinant soluble human Seprase (rhuSeprase) (human, UniProt Q12884 29-760)
T1 construct: range 29-760; Secreted from CHO-S cells with a mouse Ig kappa secretion signal (not part of the protein in the assay); also called recombinant human Seprase; soluble fraction of human Seprase
T1 sequence: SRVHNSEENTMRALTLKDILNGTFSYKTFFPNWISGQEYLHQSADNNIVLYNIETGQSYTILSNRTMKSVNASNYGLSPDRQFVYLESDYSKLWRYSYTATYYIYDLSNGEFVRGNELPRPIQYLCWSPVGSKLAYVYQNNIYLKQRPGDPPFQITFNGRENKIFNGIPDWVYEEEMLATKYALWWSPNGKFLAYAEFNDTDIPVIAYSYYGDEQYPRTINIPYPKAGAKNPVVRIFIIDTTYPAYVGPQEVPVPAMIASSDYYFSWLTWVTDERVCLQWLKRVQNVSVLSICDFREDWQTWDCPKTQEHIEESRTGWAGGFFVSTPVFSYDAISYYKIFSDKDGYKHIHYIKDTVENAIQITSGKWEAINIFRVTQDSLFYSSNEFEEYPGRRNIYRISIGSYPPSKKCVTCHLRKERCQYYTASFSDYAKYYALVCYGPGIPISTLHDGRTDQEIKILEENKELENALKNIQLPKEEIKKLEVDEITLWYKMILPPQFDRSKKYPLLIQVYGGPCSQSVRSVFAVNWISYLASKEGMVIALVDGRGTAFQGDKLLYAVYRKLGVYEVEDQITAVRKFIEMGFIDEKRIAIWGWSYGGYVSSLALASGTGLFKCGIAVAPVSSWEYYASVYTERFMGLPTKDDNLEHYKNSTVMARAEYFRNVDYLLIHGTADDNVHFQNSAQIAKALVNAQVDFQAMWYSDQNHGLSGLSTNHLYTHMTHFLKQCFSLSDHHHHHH

B1: MC-FA-012 (designed binder)
chain: GACPYSNWTPGRGPDCRRDSDCPGRCICRGNGYCG
modifications: disulfide (positions not given here)
notes: it is derived from MC-FA-010 and K2A; also called MC-FA-012 (K2A); monomeric MC-FA-012 Microbody
B2: AlexaFluor680-(MC-FA-012)3 (designed binder, not shown: small tags and cut ends)
chain 1: B1 chain
chain 2: B1 chain
chain 3: B1 chain
modifications: each of chains 1-3: N-terminal aminooxy group oxime-ligated to the anchor; three disulfides (cystine knot) per chain; anchor carries AlexaFluor680 at its N-terminal amine
notes: Purchased from Pepscan; also called AF680-(MC-FA-012)3
B3: Trx-MC-FA-011 (designed binder)
chain: B1 chain with G1A, A2K
modifications: disulfide 16-28, 22-34, 3-26; also: N-terminal Trx-His6-S-tag fusion carrier, letters not given here
notes: the position follows from the order of the rows; also called alanine scan variant G1A of MC-FA-010, Trx fusion; not shown: Thioredoxin-A, His-tag (H6), S-tag and linker of the pET-32-LibEx fusion, N-terminal of the miniprotein
B4: Trx-MC-FA-0115 (designed binder)
chain: B1 chain with A2K, R25A
modifications: disulfide 16-28, 22-34, 3-26; also: N-terminal Trx-His6-S-tag fusion carrier, not in chain
notes: also called alanine scan variant R25A of MC-FA-010, Trx fusion; not shown: Thioredoxin-A, His-tag (H6), S-tag and linker of the pET-32-LibEx fusion, N-terminal of the miniprotein
B5: Trx-MC-FA-0114 (designed binder)
chain: B1 chain with A2K, D15A
modifications: disulfide 16-28, 22-34, 3-26; also: N-terminal Trx-His6-S-tag fusion carrier, not in chain
notes: the position follows from the order of the rows; also called alanine scan variant D15A of MC-FA-010, Trx fusion; not shown: Thioredoxin-A, His-tag (H6), S-tag and linker of the pET-32-LibEx fusion, N-terminal of the miniprotein
B6: Trx-MC-FA-018 (designed binder)
chain: B1 chain with A2K, T9A
modifications: disulfide 16-28, 22-34, 3-26; also: N-terminal Trx-His6-S-tag fusion carrier, not in chain
notes: the position follows from the order of the rows; also called alanine scan variant T9A of MC-FA-010, Trx fusion; not shown: thioredoxin-A, His6 tag, S-tag and linkers of the pET-32-LibEx fusion (N-terminal carrier)
B7: Trx-MC-FA-016 (designed binder)
chain: B1 chain with A2K, N7A
modifications: disulfide (positions not given here); also: N-terminal thioredoxin-A, His6, S-tag and linker carrier, letters not given here
notes: the position follows from the order of the rows; also called alanine scan variant N7A of MC-FA-010, Trx fusion; not shown: thioredoxin-A, His6 tag, S-tag and linkers of the pET-32-LibEx fusion (N-terminal carrier)
B8: Trx-MC-FA-012 fusion protein (designed binder)
chain: B1 chain
modifications: disulfide 16-28, 22-34, 3-26; also: N-terminal Trx-His6-S-tag fusion carrier, not in chain
notes: also called MC-FA-012 (K2A) alanine scan variant; not shown: N-terminal carrier of the pET-32-LibEx fusion (thioredoxin-A, His tag, S-tag, thrombin site, vector linkers)
B9: Trx-MC-FA-015 (designed binder)
chain: B1 chain with A2K, S6A
modifications: disulfide 16-28, 22-34, 3-26; also: N-terminal Trx-His6-S-tag fusion carrier, not in chain
notes: the position follows from the order of the rows; also called alanine scan variant S6A of MC-FA-010, Trx fusion; not shown: thioredoxin-A, His6 tag, S-tag and linkers of the pET-32-LibEx fusion (N-terminal carrier)
B10: Trx-MC-FA-013 (designed binder)
chain: B1 chain with A2K, P4A
modifications: disulfide 16-28, 22-34, 3-26; also: N-terminal Trx-His6-S-tag fusion carrier, not in chain
notes: the position follows from the order of the rows; also called alanine scan variant P4A of MC-FA-010, Trx fusion; not shown: Thioredoxin-A, His-tag (H6), S-tag and linker of the pET-32-LibEx fusion, N-terminal of the miniprotein

Tests used:
[1] = target: T1, recombinant soluble human Seprase …; test: SPR (Biacore T-100), rhuSeprase immobilized on CM5, multi cycle kinetics, 1:1 fit
Protocol: (§1) RhuSeprase (20 μg/ml in PBS, 5% mannitol, 5% trehalose) was immobilized on an amino reactive Series S Sensor Chip CM5 (GE Healthcare). For binding analysis of monomeric Microbodies rhuSeprase was loaded to a maximum of 7500 RU, for oligomeric Microbodies to a maximum of 700 RU. Monomeric Microbodies were measured using a multi cycle kinetic method in a concentration range of 3.125 to 1000 nM based on expected dissociation constant. Association step was measured over a time period of 60-90 seconds, dissociation over 420 seconds. Trimeric Mircobodies were measured using a single cycle kinetics method in a concentration range of 0.3125 to 5 nM (association for 90 seconds, dissociation 420 seconds). Binding kinetics and steady state analysis were calculated using a 1:1 binding model (Biacore T-100 Evaluation Software, GE Healthcare).
(§2) The binding kinetics of monomeric and trimeric Seprase-binding Microbodies was determined using surface plasmon resonance spectroscopy on a Biacore T-100 system.

[2] = target: T1, recombinant soluble human Seprase …; test: SPR (Biacore T-100), rhuSeprase immobilized on CM5, steady state analysis, 1:1 fit
Protocol: as §1, §2

[3] = target: T1, recombinant soluble human Seprase …; test: SPR (Biacore T-100)
Protocol: as §1, §2

[4] = target: T1, recombinant soluble human Seprase …; test: SPR (Biacore T-100), rhuSeprase immobilized on CM5, single cycle kinetics, 1:1 fit
Protocol: as §1, §2

[5] = target: T1, recombinant soluble human Seprase …; test: direct ELISA on coated rhuSeprase; binding relative to the parental Trx-MC-FA-010
Protocol: (§3) For protein based ELISA analysis 5 μg of the respective recombinant protein (rhuSeprase; streptavidin: Sigma; DPP-IV: R&D Systems, BSA: Eurobio) were immobilized per well of a MaxiSorp™ plate (Nunc) by overnight incubation in coating buffer at 4° C. After washing thrice with 300 μl PBS-T/well on a Hydrospeed plate washer (Tecan) the wells were blocked with 1×Casein solution (Sigma, diluted in PBS) for 2 h at RT. Subsequently, the wells were washed as indicated above. 100 μl of the respective Trx-miniprotein fusion diluted in PBS-T was then added and incubated for 1 h at 4° C. […] For competition ELISAs a fixed concentration of 3 nM Trx-miniprotein fusion was mixed with varying concentration (0.64-3167 nM) of solitary miniprotein before incubation. Binding of the Trx-fusion was detected after a PBS-T washing procedure using HRP coupled anti S-tag antibody as described above. Apparent Kd was calculated using Sigmaplot 10 and an one site saturation binding model for fitting of the data.

[6] = target: T1, recombinant soluble human Seprase …; test: direct ELISA on coated rhuSeprase, Trx fusion detected with anti-S-tag-HRP; apparent KD from one site saturation fit; Error 1,17; R2 0,9981
Protocol: as §3

[7] = target: T1, recombinant soluble human Seprase …; test: direct ELISA on coated rhuSeprase, Trx fusion detected with anti-S-tag-HRP; apparent KD from one site saturation fit; Error 1,17; R2 0,9977
Protocol: as §3

[8] = target: T1, recombinant soluble human Seprase …; test: direct ELISA on coated rhuSeprase, Trx fusion detected with anti-S-tag-HRP; apparent KD from one site saturation fit; Error 1,76; R2 0,9973
Protocol: as §3

[9] = target: T1, recombinant soluble human Seprase …; test: direct ELISA on coated rhuSeprase, Trx fusion detected with anti-S-tag-HRP; apparent KD from one site saturation fit; Error 3,63; R2 0,9974
Protocol: as §3

[10] = target: T1, recombinant soluble human Seprase …; test: direct ELISA on coated rhuSeprase, Trx fusion detected with anti-S-tag-HRP; apparent KD from one site saturation fit; Error 11,54; R2 0,9969
Protocol: as §3

[11] = target: T1, recombinant soluble human Seprase …; test: direct ELISA on coated rhuSeprase, Trx fusion detected with anti-S-tag-HRP; apparent KD from one site saturation fit; Error 0,54; R2 0,9981
Protocol: as §3

[12] = target: T1, recombinant soluble human Seprase …; test: direct ELISA on coated rhuSeprase, Trx fusion detected with anti-S-tag-HRP; apparent KD from one site saturation fit; Error 1,02; R2 0,9976
Protocol: as §3

[13] = target: T1, recombinant soluble human Seprase …; test: direct ELISA on coated rhuSeprase, Trx fusion detected with anti-S-tag-HRP; apparent KD from one site saturation fit; Error 3,04; R2 0,9976
Protocol: as §3

Row | Binder | Kd [1] | koff [1] | kon [1] | Kd [2] | Relative Bindung im Vergleich zu Trx-MC-FA-010 [%] [5] | other results
1 | GSGACPYTRWAVGRGPDCRRDSDCPGRCICRGNGYCG (designed binder) [FA8-D03] | 147 nM | 0.138 s⁻¹ | 939000 M⁻¹ s⁻¹ | 151 nM |  | 
2 | GSGACPYTNWRPGRGPACRRDSDCPGRCICRGNGYCG (designed binder) [FA8-C09] | 296 nM | 2.94 s⁻¹ | 9.92e+06 M⁻¹ s⁻¹ | 243 nM |  | 
3 | GSGACPYTRWQPGRGPSCRRDSDCPGRCICRGNGYCG (designed binder) [FA8-D05] | 193 nM | 0.812 s⁻¹ | 4.21e+06 M⁻¹ s⁻¹ | 177 nM |  | 
4 | GSGACPYTNWHPGRGPACRRDSDCPGRCICRGNGYCG (designed binder) [FA8-G12] | 487 nM | 0.317 s⁻¹ | 651000 M⁻¹ s⁻¹ | 470 nM |  | 
5 | GSGACPYSRWMPGRGPSCRRDSDCPGRCICRGNGYCG (designed binder) [FA7-A05] | 205 nM | 0.0503 s⁻¹ | 246000 M⁻¹ s⁻¹ | 102 nM |  | 
6 | GSGACPYSRWAVGRGPDCRRDSDCPGRCICRGNGYCG (designed binder) [FA8-D06] | 153 nM | 0.053 s⁻¹ | 346000 M⁻¹ s⁻¹ | 113 nM |  | 
7 | GSGACPYSNWAVGRGPSCRRDSDCPGRCICRGNGYCG (designed binder) [FA8-F04] | 321 nM | 0.2 s⁻¹ | 624000 M⁻¹ s⁻¹ | 332 nM |  | 
8 | GSGACPYSNWTPGRGPDCSQDSDCLAGCVCGPNGFCG (designed binder) [ET-FA-012] | 1400 nM | 0.853 s⁻¹ | 608000 M⁻¹ s⁻¹ | 4540 nM |  | 
9 | B1 | 340 nM | 0.139 s⁻¹ | 408000 M⁻¹ s⁻¹ | 246 nM |  | 
10 | B2 |  |  |  | 0.669 nM |  | times slower offrate compared to MC-FA-012 [3]: ~134 fold; Kd [4]: 0.0615 nM; kon [4]: 1.68e+07 M⁻¹ s⁻¹
11 | B3 |  |  |  |  | 74.5% | Kd [6]: 20.3 nM
12 | B4 |  |  |  |  | 80.7% | Kd [7]: 18.8 nM
13 | B5 |  |  |  |  | 59.2% | Kd [8]: 25.6 nM
14 | B6 |  |  |  |  | 29.9% | Kd [9]: 50.6 nM
15 | B7 |  |  |  |  | 13.4% | Kd [10]: 113 nM
16 | B8 |  |  |  |  | 160% | Kd [11]: 9.49 nM
17 | B9 |  |  |  |  | 93.6% | Kd [12]: 16.2 nM
18 | B10 |  |  |  |  | 33.7% | Kd [13]: 44.9 nM
19 | GSGACPYSNWTPGRGPDCSSDSDCPGACICLENGFCG (designed binder) [MO-FA-012] | 1340 nM | 0.513 s⁻¹ | 382000 M⁻¹ s⁻¹ | 1160 nM |  | 
